In experiment [1] the target is T1, activated human coagulation factor XI (hFXIa) (human, UniProt P03951 19-625, limits assumed).
T1 construct: also called human factor XIa; human FXIa
Nature of the experiment: ELISA, lyophilized formulation after 36 months at 2-8 C, relative to BAY 1213790 reference standard. (In general: An ELISA detects its analyte on a solid surface through an enzyme-linked reagent.)

The target in experiment [2] is T1, activated human coagulation factor XI …. In words: SPR (Biacore), binding of lyophilized formulation test sample at t0 to human FXIa, relative to BAY 1213790 reference standard. Here is the method:
The binding of the BAY 1213790 test sample and of the BAY 1213790 reference standard to human factor XIa (FXIa) antigen is determined by surface plasmon resonance spectroscopy (SPR, Biacore). The binding affinity of the test sample is compared to the BAY 1213790 reference standard.
In general terms: In SPR one partner is held on a chip, and binding of the other changes the refractive index at the surface.

Experiment [3] shares this target. Nature of the experiment: cell-based or functional assay.

B1: BAY1213790 (antibody, human IgG1, kappa, V domains shown)
VH: EVQLLESGGGLVQPGGSLRLSCAASGFTFSQYGMDWVRQAPGKGLEWVSGIGPSGGSTVYADSVKGRFTISRDNSKNTLYLQMNSLRAEDTAVYYCTRGGPYYYYGMDVWGQGTTVTVSS
VL: DIQMTQSPSSLSASVGDRVTITCQASQDISNYLNWYQQKPGKAPKLLIYDASNLETGVPSRFSGSGSGTDFTFTISSLQPEDIATYYCQQADSFPVTFGGGTKVEIKR
notes: Human monoclonal IgG; also called anti-FXIa antibody; anti-hFXIa monoclonal antibody
With B1, in experiment [1], the “Activity relative to reference (ELISA)” value amounted to 104%. Further, in experiment [2], the “Activity relative to reference (Biacore)” value amounted to 108%. For the same molecule, in experiment [3], the “Activity relative to reference (Bioassay), t0” value came to 104% and the “Activity relative to reference (Bioassay), t = 36 months at 2-8 C” value was 101%.

Source of the values: patent US20190367636A1 (Bayer, published 2019).
